Paper PMC6436931, “Activation of the Endonuclease that Defines mRNA 3′ Ends Requires Incorporation into an 8-Subunit Core Cleavage and Polyadenylation Factor Complex” (Molecular Cell, 2019)

T1: Ysh1;Mpe1 (Saccharomyces cerevisiae;Saccharomyces …, UniProt Q06224;P35728 1-779;1-441, |)
T1 sequence 1: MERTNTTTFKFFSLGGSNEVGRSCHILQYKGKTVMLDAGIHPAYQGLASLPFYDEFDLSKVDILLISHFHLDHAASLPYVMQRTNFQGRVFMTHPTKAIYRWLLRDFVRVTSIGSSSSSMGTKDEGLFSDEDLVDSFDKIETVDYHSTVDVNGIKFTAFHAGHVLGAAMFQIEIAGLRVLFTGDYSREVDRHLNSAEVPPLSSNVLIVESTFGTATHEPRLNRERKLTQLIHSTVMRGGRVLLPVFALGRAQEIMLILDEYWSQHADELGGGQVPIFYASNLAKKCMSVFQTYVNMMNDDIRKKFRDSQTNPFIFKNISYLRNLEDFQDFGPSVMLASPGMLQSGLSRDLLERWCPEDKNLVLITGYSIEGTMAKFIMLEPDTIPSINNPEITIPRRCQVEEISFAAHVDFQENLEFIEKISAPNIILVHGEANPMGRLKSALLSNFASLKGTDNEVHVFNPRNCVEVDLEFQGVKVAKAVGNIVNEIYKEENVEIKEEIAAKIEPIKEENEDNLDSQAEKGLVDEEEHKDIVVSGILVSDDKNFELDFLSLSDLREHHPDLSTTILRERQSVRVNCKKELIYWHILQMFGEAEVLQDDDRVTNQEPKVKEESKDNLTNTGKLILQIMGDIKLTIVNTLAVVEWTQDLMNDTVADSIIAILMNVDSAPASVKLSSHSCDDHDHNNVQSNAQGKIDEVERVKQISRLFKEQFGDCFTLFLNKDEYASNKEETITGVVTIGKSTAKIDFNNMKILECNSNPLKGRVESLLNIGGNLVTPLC
T1 sequence 2: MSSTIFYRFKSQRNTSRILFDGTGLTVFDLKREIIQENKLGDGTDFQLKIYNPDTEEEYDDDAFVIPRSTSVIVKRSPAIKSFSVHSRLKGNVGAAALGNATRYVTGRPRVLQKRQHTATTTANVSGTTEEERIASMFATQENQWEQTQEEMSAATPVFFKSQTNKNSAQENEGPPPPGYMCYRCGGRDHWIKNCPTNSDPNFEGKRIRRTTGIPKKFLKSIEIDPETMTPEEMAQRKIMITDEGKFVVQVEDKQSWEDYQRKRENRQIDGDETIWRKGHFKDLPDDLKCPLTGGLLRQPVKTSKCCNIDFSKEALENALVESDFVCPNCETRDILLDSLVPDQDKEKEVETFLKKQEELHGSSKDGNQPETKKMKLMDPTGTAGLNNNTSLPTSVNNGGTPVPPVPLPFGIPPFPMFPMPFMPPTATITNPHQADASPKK


Legend:
[1] = target: T1, Ysh1;Mpe1; assay: EMSA; EMSA: 50 nM RNA, 0.25-4.0 uM protein, protein diluted in 10 mM HEPES pH 7.9, 150 mM NaCl, 0.5 mM Mg(OAc)2, plus 1x loading dye (orange G, glycerol, EDTA); 30 min on ice; native 6% acrylamide/TBE PAGE; conditions: protein: recombinant;recombinant; tags: ;3C-SII (C-terminal) in Ysh1-Mpe1 complexes; untagged in CPFcore; copies: 1;1; label: 5'-FAM
[2] = target: Ysh1;Mpe1;Yjr141w (Saccharomyces cerevisiae;Saccharomyces …, UniProt Q06224;P35728;P47172 1-779;1-441;1-347, ||); assay: as above; conditions: protein: recombinant;recombinant;recombinant; tags: ;3C-SII (C-terminal) in Ysh1-Mpe1 complexes; untagged in CPFcore;SII-3C (N-terminal) in Ysh1-Yjr141w; untagged in Ysh1-Mpe1-Yjr141w; copies: 1;1;1; label: 5'-FAM
Sequence of Ysh1;Mpe1;Yjr141w (P47172 whole entry, chain 3 of 3, one chain of several): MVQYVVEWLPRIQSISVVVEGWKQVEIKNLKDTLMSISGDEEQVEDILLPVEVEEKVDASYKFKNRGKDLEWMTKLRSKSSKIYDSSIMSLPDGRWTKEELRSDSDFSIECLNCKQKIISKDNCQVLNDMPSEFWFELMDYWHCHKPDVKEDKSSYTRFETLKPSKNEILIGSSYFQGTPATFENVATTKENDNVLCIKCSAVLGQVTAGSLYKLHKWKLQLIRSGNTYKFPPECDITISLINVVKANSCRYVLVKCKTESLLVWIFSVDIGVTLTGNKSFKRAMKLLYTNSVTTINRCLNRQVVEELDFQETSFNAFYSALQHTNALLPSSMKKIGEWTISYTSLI

[3] = target: Cft1;Pfs2;Yth1;Fip1 (Saccharomyces cerevisiae;Saccharomyces …, UniProt Q06632;P42841;Q06102;P45976 1-1357;1-465;1-208;1-327, |||); assay: EMSA; CPFpol (no Pap1); EMSA: 50 nM RNA, 0.25-4.0 uM protein, protein diluted in 10 mM HEPES pH 7.9, 150 mM NaCl, 0.5 mM Mg(OAc)2, plus 1x loading dye (orange G, glycerol, EDTA); 30 min on ice; native 6% acrylamide/TBE PAGE; conditions: protein: recombinant;recombinant;recombinant;recombinant; tags: ;3C-SII;3C-8H; untagged in CPFpol+Cft2;; copies: 1;2;1;1; label: 5'-FAM
Sequence of Cft1;Pfs2;Yth1;Fip1 (Q06632 whole entry, chain 1 of 4): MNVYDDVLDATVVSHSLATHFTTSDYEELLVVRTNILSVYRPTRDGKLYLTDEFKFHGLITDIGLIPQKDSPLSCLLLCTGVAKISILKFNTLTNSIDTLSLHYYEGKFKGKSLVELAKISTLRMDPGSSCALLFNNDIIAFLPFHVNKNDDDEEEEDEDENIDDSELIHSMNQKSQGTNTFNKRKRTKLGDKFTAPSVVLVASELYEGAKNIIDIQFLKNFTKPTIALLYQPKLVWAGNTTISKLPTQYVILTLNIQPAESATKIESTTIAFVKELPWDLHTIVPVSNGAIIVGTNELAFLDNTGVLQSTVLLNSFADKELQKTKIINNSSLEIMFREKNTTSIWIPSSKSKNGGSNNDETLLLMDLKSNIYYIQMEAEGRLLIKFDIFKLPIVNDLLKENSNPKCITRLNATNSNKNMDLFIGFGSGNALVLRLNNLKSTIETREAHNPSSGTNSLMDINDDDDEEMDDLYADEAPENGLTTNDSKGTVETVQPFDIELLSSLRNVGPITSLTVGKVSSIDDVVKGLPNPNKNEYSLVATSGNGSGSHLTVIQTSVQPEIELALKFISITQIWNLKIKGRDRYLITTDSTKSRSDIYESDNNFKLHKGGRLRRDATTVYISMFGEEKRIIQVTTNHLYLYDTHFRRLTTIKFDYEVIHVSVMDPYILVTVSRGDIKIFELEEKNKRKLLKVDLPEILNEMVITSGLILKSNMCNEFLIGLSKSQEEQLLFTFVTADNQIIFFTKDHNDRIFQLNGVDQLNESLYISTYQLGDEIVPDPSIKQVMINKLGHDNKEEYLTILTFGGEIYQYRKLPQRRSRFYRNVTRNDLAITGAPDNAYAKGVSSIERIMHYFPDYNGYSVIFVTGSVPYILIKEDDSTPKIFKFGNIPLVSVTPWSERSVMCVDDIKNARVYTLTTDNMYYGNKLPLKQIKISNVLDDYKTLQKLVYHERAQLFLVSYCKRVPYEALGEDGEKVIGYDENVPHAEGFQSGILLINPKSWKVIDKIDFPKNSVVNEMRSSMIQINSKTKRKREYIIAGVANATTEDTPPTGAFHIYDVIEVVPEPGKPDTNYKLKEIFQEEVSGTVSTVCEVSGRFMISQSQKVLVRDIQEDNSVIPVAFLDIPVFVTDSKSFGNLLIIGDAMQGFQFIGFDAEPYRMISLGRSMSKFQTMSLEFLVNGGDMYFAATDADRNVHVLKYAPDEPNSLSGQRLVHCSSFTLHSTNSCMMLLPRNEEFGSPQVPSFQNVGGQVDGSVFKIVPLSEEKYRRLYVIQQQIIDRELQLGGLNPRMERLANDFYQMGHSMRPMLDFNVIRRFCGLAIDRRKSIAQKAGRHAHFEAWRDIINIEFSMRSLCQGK
Sequence of Cft1;Pfs2;Yth1;Fip1 (P42841 whole entry, chain 2 of 4): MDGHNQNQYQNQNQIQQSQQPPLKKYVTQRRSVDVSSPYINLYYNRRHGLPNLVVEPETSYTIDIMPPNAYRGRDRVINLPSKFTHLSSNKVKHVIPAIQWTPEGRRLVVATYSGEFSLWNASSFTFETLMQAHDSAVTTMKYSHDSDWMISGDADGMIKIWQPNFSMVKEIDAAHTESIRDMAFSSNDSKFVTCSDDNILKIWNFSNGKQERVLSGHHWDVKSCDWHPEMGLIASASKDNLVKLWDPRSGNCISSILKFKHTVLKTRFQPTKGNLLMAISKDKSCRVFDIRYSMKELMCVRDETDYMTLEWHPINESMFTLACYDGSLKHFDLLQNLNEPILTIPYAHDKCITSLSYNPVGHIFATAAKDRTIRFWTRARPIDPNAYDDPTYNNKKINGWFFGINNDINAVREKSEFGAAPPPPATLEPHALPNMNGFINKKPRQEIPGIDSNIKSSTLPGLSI
Sequence of Cft1;Pfs2;Yth1;Fip1 (Q06102 whole entry, chain 3 of 4): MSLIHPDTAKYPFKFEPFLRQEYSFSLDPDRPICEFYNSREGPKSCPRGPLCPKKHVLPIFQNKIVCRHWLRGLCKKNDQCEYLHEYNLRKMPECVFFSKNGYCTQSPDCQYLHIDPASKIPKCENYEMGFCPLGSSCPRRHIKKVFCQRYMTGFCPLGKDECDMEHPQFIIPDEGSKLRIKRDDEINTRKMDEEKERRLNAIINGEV
Sequence of Cft1;Pfs2;Yth1;Fip1 (P45976 whole entry, chain 4 of 4): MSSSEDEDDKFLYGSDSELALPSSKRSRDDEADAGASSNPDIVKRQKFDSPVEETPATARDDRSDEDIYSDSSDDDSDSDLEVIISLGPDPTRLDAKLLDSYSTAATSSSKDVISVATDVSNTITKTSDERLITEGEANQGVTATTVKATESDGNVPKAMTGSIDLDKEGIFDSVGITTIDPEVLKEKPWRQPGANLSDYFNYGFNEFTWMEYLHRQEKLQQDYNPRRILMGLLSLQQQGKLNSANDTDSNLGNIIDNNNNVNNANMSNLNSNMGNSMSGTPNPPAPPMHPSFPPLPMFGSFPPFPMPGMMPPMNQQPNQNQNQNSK

Binder	binding result [1]	binding result [2]	binding result [3]
GGGGGGGGGGGGGGG (ssRNA) [G15]	binds	binds	binds
CCCCCCCCCCCCCCC (ssRNA) [C15]	no binding	no binding	no binding
AAAAAAAAAAAAAAA (ssRNA) [A15]	no binding	no binding	binds
AAGAACGUUAUUUAUAUUUCAAAUUUUUCUUUUUU (ssRNA) [CYC1d EMSA probe]	–	–	binds
UUUUUUUUUUUUUUU (ssRNA) [U15]	no binding	no binding	no binding
